In US20260042854A1 (SCIWIND BIOSCIENCES USA, published 2026):

T1: mouse GLP-1R (NM_021332.2) on HEK293 cells (mouse, UniProt O35659 22-463)
T1 sequence (looked up): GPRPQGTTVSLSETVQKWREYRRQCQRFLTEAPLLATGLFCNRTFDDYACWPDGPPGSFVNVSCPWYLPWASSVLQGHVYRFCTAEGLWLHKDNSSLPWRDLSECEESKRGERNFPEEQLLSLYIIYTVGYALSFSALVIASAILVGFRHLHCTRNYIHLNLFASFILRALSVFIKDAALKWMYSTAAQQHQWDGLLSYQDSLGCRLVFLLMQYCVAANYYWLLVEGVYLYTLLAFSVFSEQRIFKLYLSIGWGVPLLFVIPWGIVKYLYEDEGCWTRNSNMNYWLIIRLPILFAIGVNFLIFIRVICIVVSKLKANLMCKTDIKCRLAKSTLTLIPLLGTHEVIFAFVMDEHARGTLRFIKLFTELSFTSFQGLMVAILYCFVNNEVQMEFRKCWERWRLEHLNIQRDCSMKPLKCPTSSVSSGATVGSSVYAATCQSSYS


Columns and labels:
[1] = target: T2, extracellular domain of hGLP-1R (NP_002053.3, aa 24-145), recombinant protein (human, UniProt P43220 24-145); test: ELISA, plate coated with hGLP-1R extracellular domain, anti-human Fc-HRP detection
T2 construct: range 24-145; Expressed as a recombinant protein; also called hGLP-1R recombinant protein

[2] = target: T3, hGLP-1R on the cell membrane (HEK293 cells overexpressing hGLP-1R) (human, UniProt P43220 24-463); test: flow cytometry on HEK293 cells overexpressing hGLP-1R, PE anti-human IgG Fc
T3 construct: whole, on cells; also called full-length hGLP-1R; human GLP-1R

[3] = target: monkey GLP-1R (JN033215.1) on HEK293 cells (monkey); test: cell-based or functional assay
[4] = target: T3, hGLP-1R on the cell membrane (HEK293 …); test: cell-based or functional assay
[5] = target: T1, mouse GLP-1R (NM_021332.2) on HEK293 …; test: cell-based or functional assay
[6] = target: T3, hGLP-1R on the cell membrane (HEK293 …); test: cell-based or functional assay; remark: listed apart in the source

Binder | EC50 [1] | EC50 [2] | IC50 (nM), inhibition of GLP-1 (1 ng/ml) induced cAMP (HTRF) in HEK293 cells transfected with monkey GLP-1R [3] | IC50 (nM), inhibition of GLP-1 (1 ng/ml) induced cAMP (HTRF) in HEK293 cells transfected with human GLP-1R [4] | IC50 (nM), inhibition of GLP-1 (6 ng/ml) induced cAMP (HTRF) in HEK293 cells transfected with mouse GLP-1R [5] | IC50, inhibition of GLP-1 (2.5 ng/mL) activity in hGLP-1R-CRE-Luciferase-HEK293 reporter gene assay [6]
P16289 (antibody, human IgG4 S228P, kappa, V domains shown, Fully human Fab from a phage library, linked to IgG4 (S228P) constant regions; also called anti-GLP-1R antibody P16289) VH: EVQLVETGGGVVQPGRSLRLSCAASGFTFSSYAMHWVRQAPGKGLEWVAVISYDGSNKYYADSVKGRFTISRDNSKNTLYLQMNSLRAEDTAVYYCAREGYSSSWTYYYYYYMDVWGKGTMVTVSS VL: DIQLTQSPSSLSASVGDRVTITCRASQGVSRALAWYQQKPGKAPKLLIYDASYLEDGVPSRFSGSGSGTDFTLTISSLQPEDFATYYCQQSYSTPYTFGQGTKLEIKR | 0.0048 nM | > 137 nM | > 5500 nM | > 5500 nM | > 5500 nM | > 2820 nM
P16288 (antibody, human IgG4 S228P, kappa, V domains shown, Fully human Fab from a phage library, linked to IgG4 (S228P) constant regions; also called anti-GLP-1R antibody P16288) VH: QVQLVQSGAEMKKPGASVKVSCKTSGYRFSTYVISWVRQTPGQGLEWMGWISPYTGDIDYAQKFQGRVTITADESTSTAYMELSRLRSDDTAVYYCARERDGYNFPGMDVWGQGTTVTVSS VL: DIQLTQSPSFLSASVGDRVTITCRASQGISSYLAWYQQKPGRAPKLLIYSASTLQRGVPSRFSGSGSGTDFTLTISSLQPEDYATYYCQQADSFPPSFGPGTKVDIKR | 0.013 nM | 9.9 nM | 162 nM | 211 nM | – | 13.4 nM
